Experimental data: paper PMC4191430 (Nucleic Acids Research, 2014)

Target: T1, HA-Fbxl5 (human (cDNA from A549 cells), UniProt Q9UKA1 1-691)
T1 sequence (looked up): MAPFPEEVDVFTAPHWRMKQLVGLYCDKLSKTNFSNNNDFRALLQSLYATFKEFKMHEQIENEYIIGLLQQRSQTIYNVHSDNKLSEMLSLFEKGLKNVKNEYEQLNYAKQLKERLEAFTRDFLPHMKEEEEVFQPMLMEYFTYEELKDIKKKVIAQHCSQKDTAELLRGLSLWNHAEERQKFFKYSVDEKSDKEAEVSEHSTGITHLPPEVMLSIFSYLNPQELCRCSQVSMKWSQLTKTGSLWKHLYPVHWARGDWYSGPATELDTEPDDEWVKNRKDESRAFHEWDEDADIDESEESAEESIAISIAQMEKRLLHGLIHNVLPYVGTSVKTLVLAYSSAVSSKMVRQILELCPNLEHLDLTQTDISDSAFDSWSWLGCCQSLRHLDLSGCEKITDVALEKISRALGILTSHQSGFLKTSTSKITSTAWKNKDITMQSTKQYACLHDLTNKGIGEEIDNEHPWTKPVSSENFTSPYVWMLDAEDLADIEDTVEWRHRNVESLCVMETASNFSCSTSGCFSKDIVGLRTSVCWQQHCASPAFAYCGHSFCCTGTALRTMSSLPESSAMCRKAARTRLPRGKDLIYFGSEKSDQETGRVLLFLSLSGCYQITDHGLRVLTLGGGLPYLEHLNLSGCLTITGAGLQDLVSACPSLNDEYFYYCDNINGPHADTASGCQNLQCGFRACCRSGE
Experiment: pull-down

B1: GST-hSSB1 (natural protein, human (cDNA from A549 cells), UniProt Q9BQ15 1-211, looked up)
chain: MTTETFVKDIKPGLKNLNLIFIVLETGRVTKTKDGHEVRTCKVADKTGSINISVWDDVGNLIQPGDIIRLTKGYASVFKGCLTLYTGRGGDLQKIGEFCMVYSEVPNFSEPNPEYSTQQAPNKAVQNDSNPSASQPTTGPSAASPASENQNGNGLSAPPGPGGGPHPPHTPSHPPSTRITRSQPNHTPAGPPGPSSNPVSNGKETRRSSKR
binding result: binds
